The target of assay [1] is p50Cdc37 1-378 (UniProt Q16543). The experiment in a line: ELISA on immobilized GST-p50Cdc37, nucleotide dose-response. The conditions noted are these: for other: IC50 of ADP against complex: ADP titration; for other: IC50 of ATP against complex: ATP titration. On the technique in general: ELISA stands for enzyme-linked immunosorbent assay.
Assay [2] concerns the target human full-length Hsp90β (human) (UniProt P08238). The experiment in a line: SEC; analytical Superdex200 10/300 GL, room temperature, 0.3 mL/min; 85 µM protein in 50 mM HEPES pH 7.5, 50 mM KCl, 5 mM MgCl2, 1 mM DTT; fractions on SDS-PAGE. (In general: In gel filtration, larger molecules generally elute earlier.)
For assay [3], the target named is Hsp90β (UniProt P08238). The experiment in a line: ELISA on immobilized GST-p50Cdc37, nucleotide dose-response. The conditions noted are these: sites S13.
The target in assay [4] is Hsp82 (Saccharomyces cerevisiae) (UniProt P02829). Conditions: cited from earlier work.
Where [5] appears, read: reference: unphosphorylated Hsp90β, sites S226,S255.
Where [6] appears, read: reference: both proteins unphosphorylated, sites S226,S255,S13.

“Also recorded” adds a separate entry of the source.

Chain of Hsp82 (Saccharomyces cerevisiae) (P02829 whole entry): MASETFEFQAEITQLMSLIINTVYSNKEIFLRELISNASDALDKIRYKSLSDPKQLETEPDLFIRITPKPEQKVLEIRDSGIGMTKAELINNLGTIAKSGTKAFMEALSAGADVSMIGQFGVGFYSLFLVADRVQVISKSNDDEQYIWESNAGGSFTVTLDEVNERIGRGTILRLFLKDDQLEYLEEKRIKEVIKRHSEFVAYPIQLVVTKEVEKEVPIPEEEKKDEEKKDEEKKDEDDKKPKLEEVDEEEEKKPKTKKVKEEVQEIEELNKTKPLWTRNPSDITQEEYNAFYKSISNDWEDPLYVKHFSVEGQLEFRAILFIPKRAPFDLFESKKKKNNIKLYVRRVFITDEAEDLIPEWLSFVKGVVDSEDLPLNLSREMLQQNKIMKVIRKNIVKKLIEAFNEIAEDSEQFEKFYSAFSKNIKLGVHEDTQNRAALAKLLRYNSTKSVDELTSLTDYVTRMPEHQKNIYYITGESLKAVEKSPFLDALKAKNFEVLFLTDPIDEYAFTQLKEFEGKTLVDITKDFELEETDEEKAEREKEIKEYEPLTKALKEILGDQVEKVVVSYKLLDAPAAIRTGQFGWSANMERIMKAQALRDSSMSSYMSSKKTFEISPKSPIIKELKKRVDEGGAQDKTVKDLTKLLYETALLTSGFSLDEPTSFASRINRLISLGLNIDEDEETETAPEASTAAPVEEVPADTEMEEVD
Chain of human full-length Hsp90β, P08238 1-724 (natural protein; other documents disagree on this pair) (P08238 whole entry): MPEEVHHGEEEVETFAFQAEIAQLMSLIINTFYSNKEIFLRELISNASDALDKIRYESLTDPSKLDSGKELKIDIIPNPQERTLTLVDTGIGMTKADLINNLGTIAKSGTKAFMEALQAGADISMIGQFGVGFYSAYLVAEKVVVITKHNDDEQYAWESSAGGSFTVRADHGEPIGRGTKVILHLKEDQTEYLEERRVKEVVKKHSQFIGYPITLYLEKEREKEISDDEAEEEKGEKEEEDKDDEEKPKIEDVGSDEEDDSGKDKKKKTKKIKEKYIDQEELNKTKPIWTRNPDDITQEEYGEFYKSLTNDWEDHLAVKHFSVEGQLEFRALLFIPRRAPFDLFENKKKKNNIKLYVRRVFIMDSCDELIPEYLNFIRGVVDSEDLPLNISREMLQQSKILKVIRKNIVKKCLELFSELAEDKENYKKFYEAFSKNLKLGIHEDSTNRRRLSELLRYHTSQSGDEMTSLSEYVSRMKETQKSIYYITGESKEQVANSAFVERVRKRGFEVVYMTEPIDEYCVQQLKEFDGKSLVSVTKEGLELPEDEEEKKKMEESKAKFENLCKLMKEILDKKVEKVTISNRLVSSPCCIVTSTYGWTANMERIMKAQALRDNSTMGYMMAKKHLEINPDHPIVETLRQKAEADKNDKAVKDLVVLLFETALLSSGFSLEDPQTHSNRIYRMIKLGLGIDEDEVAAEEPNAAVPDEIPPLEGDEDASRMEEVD
Chain of p50Cdc37 (Q16543 whole entry): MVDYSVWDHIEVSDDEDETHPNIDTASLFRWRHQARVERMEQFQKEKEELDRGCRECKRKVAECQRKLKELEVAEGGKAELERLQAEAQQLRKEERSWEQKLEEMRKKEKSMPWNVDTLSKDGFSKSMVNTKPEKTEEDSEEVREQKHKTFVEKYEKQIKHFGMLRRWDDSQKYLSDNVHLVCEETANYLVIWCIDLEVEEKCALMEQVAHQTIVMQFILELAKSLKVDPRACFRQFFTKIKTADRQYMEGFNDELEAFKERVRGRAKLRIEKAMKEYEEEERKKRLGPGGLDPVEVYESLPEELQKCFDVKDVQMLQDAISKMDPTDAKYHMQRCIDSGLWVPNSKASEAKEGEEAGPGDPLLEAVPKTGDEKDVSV

For the substance “Hsp90β (from UniProt P08238) CK2α-phosphorylated Hsp90β, ADP titration”, the “other: IC50 of ADP against complex” value in assay [1] (setting [5]) is given as “weaker; reference 500 ± 94; also recorded: weaker; reference 270 ± 35”.

For “Hsp90β (from UniProt P08238) CK2α-phosphorylated Hsp90β, ATP titration”, in assay [1] (setting [5]), the “other: IC50 of ATP against complex” value is on record as “weaker; reference >1000”.

As to “Hsp90β (from UniProt P08238) both proteins CK2α-phosphorylated, ADP titration”, the “other: IC50 of ADP against complex” value in assay [1] (setting [6]) was “weaker; reference 500 ± 94”.

Regarding “Hsp90β (from UniProt P08238) both proteins CK2α-phosphorylated, ATP titration”, in assay [1] (setting [6]), the “other: IC50 of ATP against complex” value is recorded as “weaker; reference >1000”.

On to “human full-length Hsp90β, P08238 1-724 (natural protein; other documents disagree on this pair)”, for which the stoichiometry N (as a rule, a count of units in the complex or per binding partner) in assay [2] stood at 2.

“p50Cdc37 1-378 (from UniProt Q16543) CK2α-phosphorylated p50Cdc37, ADP titration”: the “other: IC50 of ADP against complex” value in assay [3] (reference: unphosphorylated p50Cdc37, ADP titration) is “weaker; reference 500 ± 94; also recorded: weaker; reference 220 ± 24”.

With “p50Cdc37 1-378 (from UniProt Q16543) CK2α-phosphorylated p50Cdc37, ATP titration”, the “other: IC50 of ATP against complex” value in assay [3] (reference: unphosphorylated p50Cdc37, ATP titration) is listed as “same; reference >1000”.

p50Cdc37 (from UniProt Q16543): the Kd (in general, a measure of binding affinity in units of concentration) in assay [4] was 1.46 µM.

Values taken from publication PMC4601640, “Stability of the Human Hsp90-p50^Cdc37 Chaperone Complex against Nucleotides and Hsp90 Inhibitors, and the Influence of Phosphorylation by Casein Kinase 2” (Molecules, 2015).
